Test results from the supplement of paper PMC10567573.

B1: VAMP4 (parent)
chain: IMALVAAILLLVIIILIVMKYRT
B2: SFRS1 (parent)
chain: YSPRRSRGSPRYSPRHSRSRSRT

Variants of: B1
Assay: protein stability index of a GFP-peptide fusion (GPS, HEK-293T) (PSI 1-6); higher = more stable
Conditions: c terminus: native
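Note: lentivirally expressed fusions sorted by FACS into six bins by GFP to DsRed ratio, PSI derived from sequencing read proportions per bin multiplied by bin number.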

Q: For IMALVAAILLLVIIILIVMKYRH [T23H], which protein stability index is on record?
A: The protein stability index was 3.48.

Q: Which protein stability index does the source give for IMALVAAILLLVIIILIVMKYRI [T23I] here?
A: The protein stability index was 2.95.

Q: With IMALVAAILLLVIIILIVMKYRK [T23K] as the variant, how does the protein stability index read?
A: The protein stability index was 2.31.

Q: With IMALVAAILLLVIIILIVMKYRL [T23L] as the variant, how does the protein stability index read?
A: Its protein stability index is 3.06.

Q: Which protein stability index does the source give for IMALVAAILLLVIIILIVMKYRM [T23M] here?
A: The protein stability index was 3.39.

Q: Which protein stability index does the source give for IMALVAAILLLVIIILIVMKYRN [T23N] here?
A: Its protein stability index is 3.18.

Q: Which protein stability index does the source give for IMALVAAILLLVIIILIVMKYRP [T23P] here?
A: Its protein stability index is 3.28.

Q: With IMALVAAILLLVIIILIVMKYRQ [T23Q] as the variant, how does the protein stability index read?
A: Its protein stability index is 3.1.

Q: With IMALVAAILLLVIIILIVMKYRR [T23R] as the variant, how does the protein stability index read?
A: Its protein stability index is 2.99.

Q: With IMALVAAILLLVIIILIVMKYRS [T23S] as the variant, how does the protein stability index read?
A: Its protein stability index is 3.11.

Q: Which protein stability index does the source give for IMALVAAILLLVIIILIVMKYRV [T23V] here?
A: The protein stability index was 3.3.

Q: Which protein stability index does the source give for IMALVAAILLLVIIILIVMKYRW [T23W] here?
A: Its protein stability index is 3.69.

Q: Which protein stability index does the source give for IMALVAAILLLVIIILIVMKYRY [T23Y] here?
A: Its protein stability index is 3.37.

Variants of: B2
Assay: as above
Conditions: c terminus: native

Q: Which protein stability index does the source give for ASPRRSRGSPRYSPRHSRSRSRT [Y1A] here?
A: Its protein stability index is 4.29.

Q: For CSPRRSRGSPRYSPRHSRSRSRT [Y1C], which protein stability index is on record?
A: Its protein stability index is 3.99.

Q: Which protein stability index does the source give for DSPRRSRGSPRYSPRHSRSRSRT [Y1D] here?
A: Its protein stability index is 3.9.

Q: With ESPRRSRGSPRYSPRHSRSRSRT [Y1E] as the variant, how does the protein stability index read?
A: Its protein stability index is 3.92.

Q: For FSPRRSRGSPRYSPRHSRSRSRT [Y1F], which protein stability index is on record?
A: Its protein stability index is 2.96.

Q: For GSPRRSRGSPRYSPRHSRSRSRT [Y1G], which protein stability index is on record?
A: The protein stability index was 4.65.

Q: Which protein stability index does the source give for HSPRRSRGSPRYSPRHSRSRSRT [Y1H] here?
A: The protein stability index was 4.86.

Q: With ISPRRSRGSPRYSPRHSRSRSRT [Y1I] as the variant, how does the protein stability index read?
A: The protein stability index was 4.17.

Q: Which protein stability index does the source give for KSPRRSRGSPRYSPRHSRSRSRT [Y1K] here?
A: The protein stability index was 4.1.

Q: For LSPRRSRGSPRYSPRHSRSRSRT [Y1L], which protein stability index is on record?
A: Its protein stability index is 3.74.

Q: With MSPRRSRGSPRYSPRHSRSRSRT [Y1M] as the variant, how does the protein stability index read?
A: The protein stability index was 3.9.

Q: With NSPRRSRGSPRYSPRHSRSRSRT [Y1N] as the variant, how does the protein stability index read?
A: The protein stability index was 5.03.

Q: For PSPRRSRGSPRYSPRHSRSRSRT [Y1P], which protein stability index is on record?
A: Its protein stability index is 4.55.

Q: With QSPRRSRGSPRYSPRHSRSRSRT [Y1Q] as the variant, how does the protein stability index read?
A: The protein stability index was 4.55.

Q: For RSPRRSRGSPRYSPRHSRSRSRT [Y1R], which protein stability index is on record?
A: The protein stability index was 5.25.

Q: For SSPRRSRGSPRYSPRHSRSRSRT [Y1S], which protein stability index is on record?
A: The protein stability index was 4.36.

Q: For TSPRRSRGSPRYSPRHSRSRSRT [Y1T], which protein stability index is on record?
A: Its protein stability index is 4.43.

Q: Which protein stability index does the source give for VSPRRSRGSPRYSPRHSRSRSRT [Y1V] here?
A: Its protein stability index is 4.65.

Q: For WSPRRSRGSPRYSPRHSRSRSRT [Y1W], which protein stability index is on record?
A: The protein stability index was 4.08.

Q: Which protein stability index does the source give for YAPRRSRGSPRYSPRHSRSRSRT [S2A] here?
A: Its protein stability index is 2.

Q: For YCPRRSRGSPRYSPRHSRSRSRT [S2C], which protein stability index is on record?
A: Its protein stability index is 1.94.

Q: With YDPRRSRGSPRYSPRHSRSRSRT [S2D] as the variant, how does the protein stability index read?
A: Its protein stability index is 4.09.

Q: Which protein stability index does the source give for YEPRRSRGSPRYSPRHSRSRSRT [S2E] here?
A: Its protein stability index is 4.12.

Q: Which protein stability index does the source give for YFPRRSRGSPRYSPRHSRSRSRT [S2F] here?
A: Its protein stability index is 3.52.

Q: With YGPRRSRGSPRYSPRHSRSRSRT [S2G] as the variant, how does the protein stability index read?
A: The protein stability index was 4.27.

Q: For YHPRRSRGSPRYSPRHSRSRSRT [S2H], which protein stability index is on record?
A: Its protein stability index is 2.75.

Q: With YIPRRSRGSPRYSPRHSRSRSRT [S2I] as the variant, how does the protein stability index read?
A: Its protein stability index is 3.27.

Q: With YKPRRSRGSPRYSPRHSRSRSRT [S2K] as the variant, how does the protein stability index read?
A: Its protein stability index is 3.9.

Q: For YLPRRSRGSPRYSPRHSRSRSRT [S2L], which protein stability index is on record?
A: The protein stability index was 4.2.

Q: Which protein stability index does the source give for YMPRRSRGSPRYSPRHSRSRSRT [S2M] here?
A: The protein stability index was 3.77.

Q: Which protein stability index does the source give for YNPRRSRGSPRYSPRHSRSRSRT [S2N] here?
A: The protein stability index was 3.54.

Q: Which protein stability index does the source give for YPPRRSRGSPRYSPRHSRSRSRT [S2P] here?
A: The protein stability index was 3.71.

Q: For YQPRRSRGSPRYSPRHSRSRSRT [S2Q], which protein stability index is on record?
A: The protein stability index was 3.98.

Q: For YRPRRSRGSPRYSPRHSRSRSRT [S2R], which protein stability index is on record?
A: The protein stability index was 4.84.

Q: With YTPRRSRGSPRYSPRHSRSRSRT [S2T] as the variant, how does the protein stability index read?
A: Its protein stability index is 3.19.

Q: For YVPRRSRGSPRYSPRHSRSRSRT [S2V], which protein stability index is on record?
A: Its protein stability index is 1.85.

Q: With YWPRRSRGSPRYSPRHSRSRSRT [S2W] as the variant, how does the protein stability index read?
A: The protein stability index was 4.07.

Q: For YYPRRSRGSPRYSPRHSRSRSRT [S2Y], which protein stability index is on record?
A: The protein stability index was 3.62.

Q: Which protein stability index does the source give for YSARRSRGSPRYSPRHSRSRSRT [P3A] here?
A: The protein stability index was 3.81.

Q: For YSCRRSRGSPRYSPRHSRSRSRT [P3C], which protein stability index is on record?
A: The protein stability index was 3.4.

Q: Which protein stability index does the source give for YSDRRSRGSPRYSPRHSRSRSRT [P3D] here?
A: The protein stability index was 4.51.

Q: With YSERRSRGSPRYSPRHSRSRSRT [P3E] as the variant, how does the protein stability index read?
A: The protein stability index was 4.18.

Q: Which protein stability index does the source give for YSFRRSRGSPRYSPRHSRSRSRT [P3F] here?
A: Its protein stability index is 3.91.

Q: With YSGRRSRGSPRYSPRHSRSRSRT [P3G] as the variant, how does the protein stability index read?
A: The protein stability index was 4.3.

Q: Which protein stability index does the source give for YSHRRSRGSPRYSPRHSRSRSRT [P3H] here?
A: Its protein stability index is 4.16.

Q: With YSIRRSRGSPRYSPRHSRSRSRT [P3I] as the variant, how does the protein stability index read?
A: The protein stability index was 2.8.

Q: Which protein stability index does the source give for YSKRRSRGSPRYSPRHSRSRSRT [P3K] here?
A: Its protein stability index is 3.56.

Q: For YSLRRSRGSPRYSPRHSRSRSRT [P3L], which protein stability index is on record?
A: Its protein stability index is 3.8.

Q: For YSMRRSRGSPRYSPRHSRSRSRT [P3M], which protein stability index is on record?
A: The protein stability index was 3.58.

Q: For YSNRRSRGSPRYSPRHSRSRSRT [P3N], which protein stability index is on record?
A: The protein stability index was 4.15.

Q: With YSQRRSRGSPRYSPRHSRSRSRT [P3Q] as the variant, how does the protein stability index read?
A: The protein stability index was 3.72.

Q: Which protein stability index does the source give for YSRRRSRGSPRYSPRHSRSRSRT [P3R] here?
A: Its protein stability index is 4.27.

Q: Which protein stability index does the source give for YSSRRSRGSPRYSPRHSRSRSRT [P3S] here?
A: Its protein stability index is 4.21.

Q: Which protein stability index does the source give for YSTRRSRGSPRYSPRHSRSRSRT [P3T] here?
A: Its protein stability index is 4.22.

Q: Which protein stability index does the source give for YSVRRSRGSPRYSPRHSRSRSRT [P3V] here?
A: Its protein stability index is 4.06.

Q: For YSWRRSRGSPRYSPRHSRSRSRT [P3W], which protein stability index is on record?
A: The protein stability index was 3.11.

Q: For YSYRRSRGSPRYSPRHSRSRSRT [P3Y], which protein stability index is on record?
A: Its protein stability index is 4.24.

Q: With YSPARSRGSPRYSPRHSRSRSRT [R4A] as the variant, how does the protein stability index read?
A: The protein stability index was 2.82.

Q: With YSPCRSRGSPRYSPRHSRSRSRT [R4C] as the variant, how does the protein stability index read?
A: Its protein stability index is 2.28.

Q: For YSPDRSRGSPRYSPRHSRSRSRT [R4D], which protein stability index is on record?
A: The protein stability index was 2.74.

Q: For YSPERSRGSPRYSPRHSRSRSRT [R4E], which protein stability index is on record?
A: Its protein stability index is 3.12.

Q: For YSPFRSRGSPRYSPRHSRSRSRT [R4F], which protein stability index is on record?
A: The protein stability index was 2.57.

Q: With YSPGRSRGSPRYSPRHSRSRSRT [R4G] as the variant, how does the protein stability index read?
A: The protein stability index was 3.82.

Q: For YSPHRSRGSPRYSPRHSRSRSRT [R4H], which protein stability index is on record?
A: The protein stability index was 3.29.

Q: Which protein stability index does the source give for YSPIRSRGSPRYSPRHSRSRSRT [R4I] here?
A: Its protein stability index is 2.65.

Q: Which protein stability index does the source give for YSPKRSRGSPRYSPRHSRSRSRT [R4K] here?
A: Its protein stability index is 3.71.

Q: Which protein stability index does the source give for YSPLRSRGSPRYSPRHSRSRSRT [R4L] here?
A: Its protein stability index is 2.76.

Q: For YSPMRSRGSPRYSPRHSRSRSRT [R4M], which protein stability index is on record?
A: The protein stability index was 2.76.

Q: With YSPNRSRGSPRYSPRHSRSRSRT [R4N] as the variant, how does the protein stability index read?
A: The protein stability index was 3.13.

Q: Which protein stability index does the source give for YSPPRSRGSPRYSPRHSRSRSRT [R4P] here?
A: Its protein stability index is 3.36.

Q: With YSPQRSRGSPRYSPRHSRSRSRT [R4Q] as the variant, how does the protein stability index read?
A: Its protein stability index is 3.53.

Q: Which protein stability index does the source give for YSPSRSRGSPRYSPRHSRSRSRT [R4S] here?
A: The protein stability index was 3.56.

Q: With YSPTRSRGSPRYSPRHSRSRSRT [R4T] as the variant, how does the protein stability index read?
A: Its protein stability index is 2.83.

Q: With YSPVRSRGSPRYSPRHSRSRSRT [R4V] as the variant, how does the protein stability index read?
A: The protein stability index was 3.24.

Q: For YSPWRSRGSPRYSPRHSRSRSRT [R4W], which protein stability index is on record?
A: The protein stability index was 2.38.

Q: For YSPYRSRGSPRYSPRHSRSRSRT [R4Y], which protein stability index is on record?
A: Its protein stability index is 2.56.

Q: Which protein stability index does the source give for YSPRASRGSPRYSPRHSRSRSRT [R5A] here?
A: The protein stability index was 3.98.

Q: For YSPRCSRGSPRYSPRHSRSRSRT [R5C], which protein stability index is on record?
A: Its protein stability index is 2.92.

Q: Which protein stability index does the source give for YSPRDSRGSPRYSPRHSRSRSRT [R5D] here?
A: The protein stability index was 3.53.

Q: Which protein stability index does the source give for YSPRESRGSPRYSPRHSRSRSRT [R5E] here?
A: Its protein stability index is 3.54.

Q: For YSPRFSRGSPRYSPRHSRSRSRT [R5F], which protein stability index is on record?
A: The protein stability index was 2.52.

Q: With YSPRGSRGSPRYSPRHSRSRSRT [R5G] as the variant, how does the protein stability index read?
A: Its protein stability index is 3.

Q: With YSPRHSRGSPRYSPRHSRSRSRT [R5H] as the variant, how does the protein stability index read?
A: Its protein stability index is 4.37.

Q: Which protein stability index does the source give for YSPRISRGSPRYSPRHSRSRSRT [R5I] here?
A: Its protein stability index is 2.33.
